Like-named read-outs stand apart in the source and are kept apart here.
Columns and labels:
[1] = Drug release of SAPDs in rat plasma; format: in vitro ADME; conditions: without GSH, read-out: remaining drugs
Description: The drug release in rat plasma (10%, v/v) were performed using similar protocols as those in PBS. To determine the amount of SAPDs and free CPT in each sample, 50 μL of sample was mixed with 200 μL acetonitrile (containing 0.1% TFA) and sonicated for 1 min. The supernatants were collected using centrifugation. All samples were filtered through a 0.22 μm membrane before analysis by a UPLC system (Waters ACQuity™ Ultra Performance LC) equipped with a reverse-phase column (ACQuity UPLC@BEH, C18, 1.7 μm 2.1×150 mm) and a fluorescence detector (ACQuity FLR, Ex/Em=362/430 nm). The column was flushed with a mixture of water (0.1% TFA) and acetonitrile (0.1% TFA) at 0.3 mL/min with the following gradient: 5% acetonitrile (0-1 min), 5-95% acetonitrile (1-5 min), 95% acetonitrile (5-8 min), 95-5% acetonitrile (8-9 min), and 5% acetonitrile (9-10 min). Peaks of SAPDs and free CPT were monitored and recorded, and the concentrations were calculated by comparing with standard curves.

[2] = Zeta potential measurement; format: physicochemical
Description: TT solutions of 200 μM in 1×-DPBS buffer (pH=7.4) were prepared by directly mixing identical volumes of a 400 μM aqueous TT solution and 2×-DPBS buffer (pH=7.4). In some embodiments, solutions at a concentration of 2 mM in PBS buffer (pH=7.4) were prepared and aged overnight prior to zeta potential measurement. TT solutions of 200 μM in 1×-DPBS buffer (pH=5.0) were prepared by mixing identical volumes of a 400 μM aqueous TT solution and 2×-DPBS buffer (pH=5.0), which was pretreated with 6 M HCl. The zeta potential measurements were performed on a Zetasizer Nano ZS90 (Malvern Instruments Ltd., UK). The prepared solutions were loaded in capillary cells and equilibrated for 2 min prior to measurement. The average values and their standard deviations are calculated from three replicate measurements. The zeta potential of the assembled structures was obtained by measuring the electrophoretic movement of the nanostructures under the applied electric field, where the movement velocity is determined by phase analysis light scattering. Variations of the zeta potential value over time were determined by measuring the solutions at different aging time points (1, 2, 4 and 7 days) and are plotted in FIG. 10.

[3] = tested on: HT-29 cells; assay: Antitumor efficacy of SAPDs at near MTD on a HT-29 tumor model; conditions: for mean tumor volume: day 28, SAPD 1 12 mg/kg, SAPD 2-4 36 mg/kg i.v. days 1, 5, 9, irinotecan 100 mg/kg i.p. days 1, 8, 15
Description: Antitumor efficacy study of SAPDs at near MTD on a HT-29 tumor model. HT-29 tumor model was established as described above. When the averaged tumor size reached 70-110 mm^3, mice were randomly divided into six groups (n=5 for each group). Four different SAPDs were all i.v. dosed at near or slightly lower than their estimated MTDs. […] The irinotecan (i.p. injection, 100 mg/kg at days 1, 8 and 15) and the PBS groups were used as controls. All other protocols were similar to those in the above-mentioned efficacy study.

[4] = Maximum tolerated dose (MTD) dose escalation study; format: in vivo, athymic nude mice; conditions: for Maximum % BW loss: n=3
Description: Maximum tolerated dose (MTD) studies. MTD of SAPD 1 has been previously determined in our lab (Table 1). MTDs of other SAPDs were determined by dose escalation studies in healthy female athymic nude mice (Charles River, 12-13 weeks old). A single intravenous (i.v.) injection of SAPD was dosed at day 1 and the body weights of each mouse (n=3) were recorded every day for six days and every the other day until two weeks. The dosing volume was determined based upon a ratio of 200 μL for a 20 g mouse. Doses of SAPDs used in the studied were 108, 72, 54, 45, 36 and 18 mg/kg (CPT equivalent).

[5] = Circulation studies of SAPDs in rats; format: in vivo, Sprague Dawley (SD) rats; conditions: 10 mg/kg i.v.; for CPT remained in the bounded form: 5 min
Description: Circulation studies of SAPDs in rats. Female Sprague Dawley (SD) Rats (200-250 g) were randomly grouped into four groups with three rats in each group. SAPDs were all intravenously (i.v.) dosed at 10 mg/kg (CPT equivalent). The dosing volumes of SAPDs were estimated by a ratio of 1 mL for a 200 g rat. The blood samples were collected at 5 min, 15 min, 30 min, 1 h, 2 h, 4 h, 8 h, and 12 h, which were immediately centrifuged to take plasma for further analysis and stored at −80° C. The plasma proteins were precipitated using similar protocols as mentioned above in drug release section and the determination of SAPDs and free CPT in the plasma by UPLC also used the same conditions.
Estimation of SAPD concentration in plasma upon injection. To calculation the concentration after dilution, we simply set the following parameters: body weight of mice (20 g), dosing volume of mice (200 μL), blood volume of mice (1.8 mL), body weight of rat (200 g), dosing volume of mice (1 mL), blood volume of mice (18 mL) and the dosage for both mice and rats (10 mg/kg).

[6] = female, athymic nude, mouse, in vivo, iv, single i.v. injection, CPT equivalent, healthy athymic nude mice
[7] = single i.v. dose 18 mg/kg (CPT equivalent)
[8] = single i.v. dose 36 mg/kg (CPT equivalent)
[9] = single i.v. dose 45 mg/kg (CPT equivalent)
[10] = single i.v. dose 54 mg/kg (CPT equivalent)
[11] = single i.v. dose 72 mg/kg (CPT equivalent)

| SMILES | remaining at 96 h ([1]; rat plasma (10%, v/v)) | ζ-Potential ([2]; assembled SAPDs in PBS buffer) | mean tumor volume [3] | Survival/Total ([4]; single i.v. dose 18 mg/kg) | day of maximum BW loss ([4]; single i.v. dose 18 mg/kg) | Maximum % BW loss [4, 7] | Survival/Total ([4]; single i.v. dose 36 mg/kg) | day of maximum BW loss ([4]; single i.v. dose 36 mg/kg) | Maximum % BW loss [4, 8] | Survival/Total ([4]; single i.v. dose 45 mg/kg) | Maximum % BW loss [4, 9] | Survival/Total ([4]; single i.v. dose 54 mg/kg) | day of maximum BW loss ([4]; single i.v. dose 54 mg/kg) | Maximum % BW loss [4, 10] | Survival/Total ([4]; single i.v. dose 72 mg/kg) | Maximum % BW loss [4, 11] | Survival/Total ([4]; single i.v. dose 108 mg/kg) | total CPT concentration in plasma ([5]; 1 h) | total CPT concentration in plasma ([5]; 2 h) | MTD [4, 6] | other results |
| --- | --- | --- | --- | --- | --- | --- | --- | --- | --- | --- | --- | --- | --- | --- | --- | --- | --- | --- | --- | --- | --- |
| CC[C@]1(OC(=O)OCCSSC[C@@H](NC(C)=O)C(=O)N[C@@H](CCCCNC(=O)[C@@H](CSSCCOC(=O)O[C@]2(CC)C(=O)OCc3c2cc2n(c3=O)Cc3cc4ccccc4nc3-2)NC(C)=O)C(=O)N[C@@H](CCCCNC(=O)CCOCCOCCOCCOCCOC)C(=O)N[C@@H](CCCCNC(=O)CCOCCOCCOCCOCCOC)C(=O)N[C@@H](CCCCNC(=O)CCOCCOCCOCCOCCOC)C(=O)N[C@@H](CCCCNC(=O)CCOCCOCCOCCOCCOC)C(N)=O)C(=O)OCc2c1cc1n(c2=O)Cc2cc3ccccc3nc2-1 [SAPD 2] | 78% | −7.4 mV | 330 mm^3 | 3/3 | 5 days | 6.2% | 3/3 | 6 days | 2.1% | 3/3 | 4.0% | 3/3 | 2 days | 3.5% | 2/3 | 11.4% | 0/3 | 7.0 µM | 2.2 µM |  | treatment related death ([3]; 36 mg/kg i.v. days 1, 5, 9, n=5): one treatement related death; MTD at 2 weeks [4, 6]: 54 mg/kg; day of maximum BW loss ([4]; single i.v. dose 45 mg/kg): 2 days; day of maximum BW loss ([4]; single i.v. dose 72 mg/kg): 2 days; CPT remained in the bounded form [5]: 28% |
| CC[C@]1(OC(=O)OCCSSC[C@@H](NC(C)=O)C(=O)N[C@@H](CCCCNC(=O)[C@@H](CSSCCOC(=O)O[C@]2(CC)C(=O)OCc3c2cc2n(c3=O)Cc3cc4ccccc4nc3-2)NC(C)=O)C(=O)N[C@@H](CCCCNC(=O)CCOCCOCCOCCOCCOC)C(=O)N[C@@H](CCCCNC(=O)CCOCCOCCOCCOCCOC)C(=O)N[C@@H](CCCCNC(=O)CCOCCOCCOCCOCCOC)C(=O)N[C@@H](CCCCNC(=O)CCOCCOCCOCCOCCOC)C(=O)N[C@@H](CCCCNC(=O)CCOCCOCCOCCOCCOC)C(=O)N[C@@H](CCCCNC(=O)CCOCCOCCOCCOCCOC)C(N)=O)C(=O)OCc2c1cc1n(c2=O)Cc2cc3ccccc3nc2-1 [SAPD 3] | 15% | −6.5 mV | 322 mm^3 | 3/3 | 4 days | 5.5% | 3/3 | 4 days | 1.4% | 3/3 | 2.5% | 3/3 | 1 days | 1.6% | 3/3 | 0% | 2/3 | 2.8 µM | 1.3 µM | 72 mg/kg | day of maximum BW loss ([4]; single i.v. dose 45 mg/kg): 4 days |
| CC[C@]1(OC(=O)OCCSSC[C@@H](NC(C)=O)C(=O)N[C@@H](CCCCNC(=O)[C@@H](CSSCCOC(=O)O[C@]2(CC)C(=O)OCc3c2cc2n(c3=O)Cc3cc4ccccc4nc3-2)NC(C)=O)C(=O)N[C@@H](CCCCNC(=O)CCOCCOCCOCCOCCOC)C(=O)N[C@@H](CCCCNC(=O)CCOCCOCCOCCOCCOC)C(=O)N[C@@H](CCCCNC(=O)CCOCCOCCOCCOCCOC)C(=O)N[C@@H](CCCCNC(=O)CCOCCOCCOCCOCCOC)C(=O)N[C@@H](CCCCNC(=O)CCOCCOCCOCCOCCOC)C(=O)N[C@@H](CCCCNC(=O)CCOCCOCCOCCOCCOC)C(=O)N[C@@H](CCCCNC(=O)CCOCCOCCOCCOCCOC)C(=O)N[C@@H](CCCCNC(=O)CCOCCOCCOCCOCCOC)C(N)=O)C(=O)OCc2c1cc1n(c2=O)Cc2cc3ccccc3nc2-1 [SAPD 4] | 18% | −5.9 mV | 408 mm^3 | 3/3 | 5 days | 3.1% | 3/3 | 2 days | 7.2% | 3/3 | 0% | 3/3 | 3 days | 3.9% | 2/3 | 1.2% | 1/3 | 4.7 µM | 1.0 µM | 72 mg/kg | day of maximum BW loss ([4]; single i.v. dose 72 mg/kg): 1 days |
| CC[C@]1(OC(=O)OCCSSC[C@@H](NC(C)=O)C(=O)N[C@@H](CCCCNC(=O)[C@@H](CSSCCOC(=O)O[C@]2(CC)C(=O)OCc3c2cc2n(c3=O)Cc3cc4ccccc4nc3-2)NC(C)=O)C(=O)N[C@@H](CCCCNC(=O)CCOCCOCCOCCOCCOC)C(=O)N[C@@H](CCCCNC(=O)CCOCCOCCOCCOCCOC)C(N)=O)C(=O)OCc2c1cc1n(c2=O)Cc2cc3ccccc3nc2-1 [TT 1] |  | −6.5 mV | 172 mm^3 | 3/3 | 1 days | 6.5% | 0/3 | 3 days | 21.2% |  |  | 0/3 | 3 days | 20% |  |  |  | 15.3 µM | 8.1 µM | 24 mg/kg | remaining at 96 h [1]: 89%; ζ-Potential ([2]; 1×-DPBS buffer, pH 5.0, 200 μM): −5 mV; ζ-Potential ([2]; 1×-DPBS buffer, pH 7.4, 200 μM): −5 mV; Survival/Total ([4]; single i.v. dose 4.5 mg/kg): 3/3; Maximum % BW loss ([4]; single i.v. dose 4.5 mg/kg (CPT equivalent)): 0%; Survival/Total ([4]; single i.v. dose 9 mg/kg): 3/3; day of maximum BW loss ([4]; single i.v. dose 9 mg/kg): 1 days; Maximum % BW loss ([4]; single i.v. dose 9 mg/kg (CPT equivalent)): 5.1%; Survival/Total ([4]; single i.v. dose 15 mg/kg): 3/3; day of maximum BW loss ([4]; single i.v. dose 15 mg/kg): 2 days; Maximum % BW loss ([4]; single i.v. dose 15 mg/kg (CPT equivalent)): 5.0%; Survival/Total ([4]; single i.v. dose 24 mg/kg): 3/3; day of maximum BW loss ([4]; single i.v. dose 24 mg/kg): 3 days; Maximum % BW loss ([4]; single i.v. dose 24 mg/kg (CPT equivalent)): 9.8%; Survival/Total ([4]; single i.v. dose 30 mg/kg): 1/3; day of maximum BW loss ([4]; single i.v. dose 30 mg/kg): 4 days; Maximum % BW loss ([4]; single i.v. dose 30 mg/kg (CPT equivalent)): 20.6%; CPT remained in the bounded form [5]: 86%; total CPT retained in the conjugate form ([5]; 1 h): more than 72% |

— patent US20220211858A1, “TUBULAR SUPRAMOLECULAR POLYMERS” (priority 2019, published 2022)
